Measurements published in patent US20250066422A1 (published 2025).

B1: DIO2-001 (peptide)
peptide: ALYDSVILL
notes: synthetic peptide from DIO2
B2: COL6A3-002 (peptide)
peptide: FLLDGSANV
notes: synthetic peptide from COL6A3
B3: ADAM8-001 (peptide)
peptide: KLLTEVHAA
notes: synthetic peptide from ADAM8
B4: RGS4-001 (peptide)
peptide: KIYNEFISV
notes: synthetic peptide from RGS4
B5: FAP-003 (peptide)
peptide: YVYQNNIYL
notes: synthetic peptide from FAP
B6: BUB1B-001 (peptide)
peptide: KIVDFSYSV
notes: synthetic peptide from BUB1B
B7: DST-002 (peptide)
peptide: KLDETNNTL
notes: synthetic peptide from DST
B8: C12orf44-001 (peptide)
peptide: AMLAVLHTV
notes: synthetic peptide from C12orf44
B9: ATP-001 (peptide)
peptide: SLHFLILYV
notes: synthetic peptide from ATP2A1, ATP2A2
B10: VCAN-002 (peptide)
peptide: ALVDHTPYL
notes: synthetic peptide from VCAN
B11: RCN1-001 (peptide)
peptide: FQYDHEAFL
notes: synthetic peptide from RCN1, RCN3
B12: MMP12-003 (peptide)
peptide: KIQEMQHFL
notes: synthetic peptide from MMP12
B13: VCAN-001 (peptide)
peptide: TLYPHTSQV
notes: synthetic peptide from VCAN
B14: OLFM1-001 (peptide)
peptide: ILMGTELTQV
notes: synthetic peptide from OLFM1
B15: CEP250-002 (peptide)
peptide: ALWEKNTHL
notes: synthetic peptide from CEP250
B16: ABCA13-002 (peptide)
peptide: ALDENLHQL
notes: synthetic peptide from ABCA13
B17: NCBP1-001 (peptide)
peptide: AMFENFVSV
notes: synthetic peptide from NCBP1
B18: ANKH-001 (peptide)
peptide: SISDVIAQV
notes: synthetic peptide from ANKH
B19: RCC1-001 (peptide)
peptide: TLISRLPAV
notes: synthetic peptide from RCC1
B20: IGF2BP3-001 (peptide)
peptide: KIQEILTQV
notes: synthetic peptide from IGF2BP3
B21: CNOT1-001 (peptide)
peptide: YLAPFLRNV
notes: synthetic peptide from CNOT1
B22: ANKS1A-001 (peptide)
peptide: ALYGRLEVV
notes: synthetic peptide from ANKS1A
B23: ABCA13-001 (peptide)
peptide: ILFEINPKL
notes: synthetic peptide from ABCA13
B24: HERC4-001 (peptide)
peptide: KVLEILHRV
notes: synthetic peptide from HERC4
B25: CDC6-001 (peptide)
peptide: ILQDRLNQV
notes: synthetic peptide from CDC6
B26: WNT5A-001 (peptide)
peptide: AMSSKFFLV
notes: synthetic peptide from WNT5A
B27: HSP-002 (peptide)
peptide: SILTIEDGIFEV
notes: synthetic peptide from HSPA2, HSPA8
B28: COG4-001 (peptide)
peptide: SLVAVELEKV
notes: synthetic peptide from COG4
B29: DPYSL4-001 (peptide)
peptide: NLLAEIHGV
notes: synthetic peptide from DPYSL4
B30: NET1-001 (peptide)
peptide: ILVSWLPRL
notes: synthetic peptide from NET1
B31: CCNA2-001 (peptide)
peptide: SLIDADPYL
notes: synthetic peptide from CCNA2
B32: STAT2-001 (peptide)
peptide: SLLPVDIRQYL
notes: synthetic peptide from STAT2
B33: THY1-001 (peptide)
peptide: SLLAQNTSWLL
notes: synthetic peptide from THY1
B34: SERPINB3-001 (peptide)
peptide: KLFGEKTYL
notes: synthetic peptide from SERPINB3
B35: AURKB-001 (peptide)
peptide: RVLPPSALQSV
notes: synthetic peptide from AURKB
B36: NCAPD2-001 (peptide)
peptide: SLAGDVALQQL
notes: synthetic peptide from NCAPD2
B37: DST-001 (peptide)
peptide: NLIEKSIYL
notes: synthetic peptide from DST
B38: SLI-001 (peptide)
peptide: SLYDNQITTV
notes: synthetic peptide from SLIT1, SLIT2
B39: SLC3A2-001 (peptide)
peptide: SLLESNKDLLL
notes: synthetic peptide from SLC3A2
B40: JUNB-001 (peptide)
peptide: YLPHAPPFA
notes: synthetic peptide from JUNB
B41: GFPT2-001 (peptide)
peptide: AIDGNNHEV
notes: synthetic peptide from GFPT2
B42: C11orf24-001 (peptide)
peptide: VVDKTLLLV
notes: synthetic peptide from C11orf24
B43: RNF213-001 (peptide)
peptide: VLSVVEVTL
notes: synthetic peptide from RNF213
B44: SMYD3-001 (peptide)
peptide: SLIEDLILL
notes: synthetic peptide from SMYD3
B45: PI4KA-001 (peptide)
peptide: AMATESILHFA
notes: synthetic peptide from PI4KA
B46: ITGA11-001 (peptide)
peptide: FLHHLEIEL
notes: synthetic peptide from ITGA11
B47: FZD-001 (peptide)
peptide: VLAPLFVYL
notes: synthetic peptide from FZD1, FZD2, FZD7
B48: SNRNP20-001 (peptide)
peptide: GLIEIISNA
notes: synthetic peptide from SNRNP200
B49: KIF26B-001 (peptide)
peptide: TVAEVIQSV
notes: synthetic peptide from KIF26B
B50: MXRA5-001 (peptide)
peptide: TLSSIKVEV
notes: synthetic peptide from MXRA5
B51: ELANE-001 (peptide)
peptide: GLYPDAFAPV
notes: synthetic peptide from ELANE
B52: EEF2-002 (peptide)
peptide: GLAEDIDKGEV
notes: synthetic peptide from EEF2
B53: IFT81-001 (peptide)
peptide: ALASVIKEL
notes: synthetic peptide from IFT81
B54: SLC34A2-001 (peptide)
peptide: VLLPVEVATHYL
notes: synthetic peptide from SLC34A2
B55: ORMDL1-002 (peptide)
peptide: TLTNIIHNL
notes: synthetic peptide from ORMDL1
B56: PLEKHA8-001 (peptide)
peptide: AILDTLYEV
notes: synthetic peptide from PLEKHA8
B57: HNRNPH-001 (peptide)
peptide: SMSGYDQVL
notes: synthetic peptide from HNRNPH1, HNRNPH2
B58: MAGEF1-001 (peptide)
peptide: ILFPDIIARA
notes: synthetic peptide from MAGEF1
B59: VPS13B-001 (peptide)
peptide: SLWGGDVVL
notes: synthetic peptide from VPS13B
B60: MDN1-001 (peptide)
peptide: ALANQKLYSV
notes: synthetic peptide from MDN1
B61: HMMR-001 (peptide)
peptide: KLLEYIEEI
notes: synthetic peptide from HMMR
B62: CERC-001 (peptide)
peptide: KLSWDLIYL
notes: synthetic peptide from CERCAM
B63: IL8-001 (peptide)
peptide: KLAVALLAA
notes: synthetic peptide from IL8
B64: ACACA-001 (peptide)
peptide: FLIPIYHQV
notes: synthetic peptide from ACACA
B65: MXRA5-002 (peptide)
peptide: GLTDNIHLV
notes: synthetic peptide from MXRA5
B66: TLX3-001 (peptide)
peptide: SLAPAGVIRV
notes: synthetic peptide from TLX3
B67: NEFH-001 (peptide)
peptide: HLLEDIAHV
notes: synthetic peptide from NEFH
B68: P2RY6-001 (peptide)
peptide: TVIGFLLPFA
notes: synthetic peptide from P2RY6

Each binder was assayed against T1, HLA-A*0201 (human) (assay: UV-ligand exchange, streptavidin/anti-b2m sandwich ELISA).
T1 construct: MHC monomer first loaded with a UV-sensitive peptide that is cleaved and exchanged for the test peptide; captured on streptavidin; also called peptide-receptive MHC molecules
Text: Candidate peptides for the vaccines according to the present invention were further tested for immunogenicity by in vitro priming assays. The individual peptide-MHC complexes required for these assays were produced by UV-ligand exchange, where a UV-sensitive peptide is cleaved upon UV-irradiation, and exchanged with the peptide of interest as analyzed. Only peptide candidates that can effectively bind and stabilize the peptide-receptive MHC molecules prevent dissociation of the MHC complexes. To determine the yield of the exchange reaction, an ELISA was performed based on the detection of the light chain (β2m) of stabilized MHC complexes.
96 well MAXISorp plates (NUNC) were coated over night with 2ug/ml streptavidin in PBS at room temperature, washed 4× and blocked for 30 min at 37° C. in 2% BSA containing blocking buffer. Refolded HLAA*0201/MLA-001 monomers served as standards, covering the range of 8-500 ng/ml. Peptide-MHC monomers of the UV-exchange reaction were diluted 100 fold in blocking buffer. Samples were incubated for 1 h at 37° C., washed four times, incubated with 2ug/ml HRP conjugated anti-β2m for 1 h at 37° C., washed again and detected with TMB solution that is stopped with […]. Absorption was measured at 450 nm.

First: B1
Second: B2
The “Average exchange yield in %” value of the first is lower: 50% for the first, 81% for the second.

Compared with B3, B4 is lower in “Average exchange yield in %” value: 67% for the first, 49% for the second.

Compared with B5, B6 is higher in “Average exchange yield in %” value: 31% for the first, 59% for the second.

Going from B7 to B8, the “Average exchange yield in %” value falls from 59% to 34%.

Compared with B9, B10 is higher in “Average exchange yield in %” value: 19% for the first, 49% for the second.

Compared with B11, B12 is lower in “Average exchange yield in %” value: 75% for the first, 57% for the second.

Compared with B13, B14 is higher in “Average exchange yield in %” value: 41% for the first, 48% for the second.

Going from B15 to B16, the “Average exchange yield in %” value falls from 70% to 36%.

First: B17
Second: B18
The “Average exchange yield in %” value of the first is higher: 65% for the first, 52% for the second.

Going from B19 to B20, the “Average exchange yield in %” value falls from 77% to 46%.

First: B21
Second: B22
The “Average exchange yield in %” value of the first is lower: 57% for the first, 78% for the second.

Compared with B23, B24 is lower in “Average exchange yield in %” value: 93% for the first, 61% for the second.

First: B25
Second: B26
The “Average exchange yield in %” value of the first is higher: 48% for the first, 37% for the second.

Going from B27 to B28, the “Average exchange yield in %” value rises from 47% to 57%.

Going from B29 to B30, the “Average exchange yield in %” value rises from 77% to 82%.

Going from B31 to B32, the “Average exchange yield in %” value rises from 54% to 69%.

Compared with B33, B34 is lower in “Average exchange yield in %” value: 65% for the first, 47% for the second.

First: B35
Second: B36
The “Average exchange yield in %” value of the first is lower: 54% for the first, 76% for the second.

Going from B37 to B38, the “Average exchange yield in %” value falls from 50% to 47%.

First: B39
Second: B40
The “Average exchange yield in %” value of the first is higher: 56% for the first, 51% for the second.

Compared with B41, B42 is higher in “Average exchange yield in %” value: 43% for the first, 47% for the second.

First: B43
Second: B44
The “Average exchange yield in %” value of the first is higher: 84% for the first, 50% for the second.

Compared with B45, B46 is higher in “Average exchange yield in %” value: 51% for the first, 53% for the second.

Compared with B47, B48 is higher in “Average exchange yield in %” value: 52% for the first, 54% for the second.

Going from B49 to B50, the “Average exchange yield in %” value falls from 68% to 57%.

Compared with B51, B52 is lower in “Average exchange yield in %” value: 62% for the first, 31% for the second.

Compared with B53, B54 is lower in “Average exchange yield in %” value: 57% for the first, 51% for the second.

Compared with B55, B56 is lower in “Average exchange yield in %” value: 61% for the first, 47% for the second.

First: B57
Second: B58
The “Average exchange yield in %” value of the first is lower: 26% for the first, 83% for the second.

Compared with B59, B60 is higher in “Average exchange yield in %” value: 63% for the first, 67% for the second.

First: B61
Second: B62
The “Average exchange yield in %” value of the first is lower: 49% for the first, 62% for the second.

First: B63
Second: B64
The “Average exchange yield in %” value of the first is lower: 41% for the first, 61% for the second.

Compared with B65, B66 is higher in “Average exchange yield in %” value: 56% for the first, 70% for the second.

First: B67
Second: B68
The “Average exchange yield in %” value of the first is lower: 50% for the first, 91% for the second.
